{
  "source": "patent US20230167415A1",
  "key": {"[1]": {"target": "WNV IS98-ST1 M-I36F/A43G double mutant virions (E protein at the surface, M protein I36F and A43G) (West Nile virus, strain IS98-ST1)", "assay": "direct ELISA, coated UV-inactivated virus produced in Vero cells"}, "[2]": {"target": "WNV IS98-ST1 M-I36F/A43G double mutant virions (E protein at the surface, M protein I36F and A43G) (West Nile virus, strain IS98-ST1)", "assay": "indirect non-competitive ELISA, Vero-produced virus captured by polyclonal anti-WNV, HRP-conjugated 4G2"}},
  "data": [
    {"substance": "Monoclonal antibody (mAb) 4G2 anti-Flavivirus E protein", "values": [
      {"measurement": "fold decrease in recognition compared to wild-type and M-A43G", "setting": "[1]", "result": 1.2, "unit": "fold"},
      {"measurement": "fold decrease in recognition", "setting": "[2]", "result": "1.2 to 2", "unit": "fold"}
    ]}
  ]
}
